The values that follow come from patent publication US20110076265A1 (POMONA RICERCA S R L, published 2011).

Assay [1] has as its target HA protein (H1-subtype hemagglutinin) of influenza A virus A/PR/08/1934 (influenza A virus A/PR/08/1934 (H1N1), UniProt P03452 18-565). Nature of the assay: immunofluorescence on fixed, permeabilized infected cells, Fab49 at 100 µg/ml.
Assay [2] has as its target Hemagglutinin of influenza B virus B/Lee/40 (influenza B virus B/Lee/40, UniProt P03460 16-584). The experiment in a line: immunofluorescence on fixed, permeabilized infected cells.
Assay [3] deals with T1, H3-subtype hemagglutinin of influenza A virus A/Aichi/2/68 (H3N2) (influenza A virus A/Aichi/2/68 (H3N2), UniProt P03437 17-566).
T1 construct: also called A/Aichi/2/68 (ATCC VR-547)
Described as above.

The target of assay [4] is H1-subtype hemagglutinin of influenza A virus A/Wilson-Smith/33 (influenza A virus A/Wilson-Smith/33 …, UniProt P03454 18-565). Nature of the assay: ELISA, sequential dilutions of purified Fab on infected cell lysates.

B1: Fab49 (human monoclonal Fab fragment produced by bacterial clone INF49) (Fab, V domains shown)
VH: LESGGGLVQPGGSLRLSCAASGITFSSYAMSWVRQAPGKGLEWVSTVNSGGGSTYYGDSVRGRFTISRDNSKSTLYLQLNSLRAEDTAIYYCAKDKGRPIFGLVTPSYYMDVWGNGT
VL: ELTQSPSSLSASVGDSVTITCRTSERISTYLNWYQQKPGKAPRLLVSGASTLQGGVPSRFSGSGSGTAFTLTINSLQPEDFATYYCQQSYSTPLTFGGGT
Regarding B1, the binding result in assay [1] is on record as “binds”; in assay [2] it was “no binding (tested: 100 µg/ml)”; in assay [3], “no binding (tested: 100 µg/ml)”; in assay [4], “binds”.
